Our source for the KELISA (mOD/min) values is US7255862.

Assay [1] has as its target feline immunodeficiency virus (FIV) Env, Villefranche strain, expressed by ALVAC recombinants vCP242 / vCP255 (feline immunodeficiency virus, Villefranche strain). In words: sandwich kinetic ELISA, plate coated with pooled FIV env-specific MAb 2 ug/well, env lysate 1 ug/well, control rabbit serum 1:100. (In general: ELISA stands for enzyme-linked immunosorbent assay.)
For assay [2] the target is unchanged. Kind of assay: sandwich kinetic ELISA, plate coated with pooled FIV env-specific MAb 2 ug/well, env lysate 0.2 ug/well, control rabbit serum 1:100.
Assay [3] shares this target. Kind of assay: sandwich kinetic ELISA, plate coated with pooled FIV gag-specific MAb 2 ug/well (mismatched capture control), env lysate 0.2 ug/well, control rabbit serum 1:100.
Assay [4] shares this target. Kind of assay: sandwich kinetic ELISA, plate coated with pooled FIV env-specific MAb 2 ug/well, env lysate 5 ug/well, control rabbit serum 1:100.
Assay [5] shares this target. In words: sandwich kinetic ELISA, plate coated with pooled FIV gag-specific MAb 2 ug/well (mismatched capture control), env lysate 5 ug/well, control rabbit serum 1:100.
For assay [6] the target is unchanged. Kind of assay: sandwich kinetic ELISA, plate coated with pooled FIV gag-specific MAb 2 ug/well (mismatched capture control), env lysate 1 ug/well, control rabbit serum 1:100.

For the substance Rabbit A039 prebleed serum, the KELISA (mOD/min) in assay [1] is 0.7 mOD/min; in assay [2] it was 0.9 mOD/min; in assay [3] it was 1 mOD/min; in assay [4], 0.9 mOD/min; in assay [5], 1 mOD/min; in assay [6], 1.2 mOD/min.
